Data from the supplement of paper PMC11908140.

B1: library; numbered along this chain (parent)
chain: MRKPRAAVGSGHRKQAASQEGRQKHAKNNSQAKPSACDGLARQPEEVVLQASVSSYHLFRDVAEVTAFRGSLLSWYDQEKRDLPWRRRAEDEMDLDRRAYAVWVSEVMLQQTQVATVINYYTGWMQKWPTLQDLASASLEEVNQLWAGLGYYSRGRRLQEGARKVVEELGGHMPRTAETLQQLLPGVGRYTAGAIASIAFGQATGVVDGNVARVLCRVRAIGADPSSTLVSQQLWGLAQQLVDPARPGDFNQAAMELGATVCTPQRPLCSQCPVESLCRARQRVEQEQLLASGSLSGSPDVEECAPNTGQCHLCLPPSEPWDQTLGVVNFPRKASRKPPREESSATCVLEQPGALGAQILLVQRPNSGLLAGLWEFPSVTWEPSEQLQRKALLQELQRWAGPLPATHLRHLGEVVHTFSHIKLTYQVYGLALEGQTPVTTVPPGARWLTQEEFHTAAVSTAMKKVFRVYQGQQPGTCMGSKRSQVSSPCSRKKPRMGQQVLDNFFRSHISTDAHSLNSAAQ

Variants of: B1
Test: 8OG:A repair function score (normalized; synonymous = 0, nonsense = -1) (normalized log-likelihood score); higher = more repair activity (WT-like)
Settings: with 8OG:A DNA repair reporter (GFP) in HEK-293 MUTYH KO cells
Procedure, shortened: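 Per-tile Rosace fitness scores were converted to a normalized repair function score anchored on synonymous and nonsense distributions. That scale puts synonymous medians at 0 and nonsense medians at -1. Variants with starting counts under 300 counts per million were discarded. Input came from sorting viable mCherry+ MUTYH knockout HEK-293 cells, carrying lentiviral MUTYH cDNA NNN codon-scan libraries in 10 pg/ml doxycycline and an 8OG:A GFP repair reporter, into GFP+ and GFP− bins at 72 h, three replicates per tile, followed by tile amplicon sequencing.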
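Note: cells sorted at 72 h after reporter transfection.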

Variant	8OG:A repair function score
D61W	-0.127
P352Y	-0.175
A259L	-0.889
V218G	-0.74
E106K	-1.45
E106Q	-1.51
E341Y	-0.00525
T308I	-0.0904
T308N	0.0456
K493G	0.0135
I118S	-0.0993
A519L	-0.012
Y121V	-0.91
V301Y	-0.219
Q358D	-0.342
S480C	-0.0352
A137S	-0.0075
A63M	-0.0357
W85F	-0.238
A456T	-0.365
Y190C	-0.373
E395Y	-0.0134
P437H	0.0786
W447R	-0.794

Variant	8OG:A repair function score
W447A	-0.968
V327F	-0.513
L134E	-0.848
V165I	-0.0615
T436W	-0.00145
E413S	0.169
E413G	-0.112
Q239S	-0.175
L73M	-0.0108
L73E	-0.46
Q113K	-0.158
H410D	-0.324
H172M	0.0264
E287M	0.0384
L430K	-0.617
S344V	-0.00413
G39V	0.0274
A99E	-1.34
S419T	-0.177
P365N	0.119
Q470S	-0.00501
Q470W	-0.0772
D249C	-0.396
N143S	-0.133

Variant	8OG:A repair function score
S515T	-0.00495
A199P	-1.07
N119D	-0.419
P404G	-0.187
R60E	-0.127
R163N	-0.164
R163S	-0.122
T122Y	-0.13
H420F	-0.576
G479H	0.0228
W321V	-0.0988
S74I	-0.0694
L387N	-0.167
Q202K	0.0342
G148Y	-0.677
M125Y	-0.538
L149C	-0.585
P273V	-0.419
A51E	0.0222
R213K	-1
L501W	-0.00606
G186W	-1.08
G297H	0.00021
P488T	0.00629

Variant	8OG:A repair function score
C216T	-0.335
V206A	-0.219
V206P	-0.905
V206G	-0.835
R87F	-0.0196
M462A	-0.0163
I195H	-1.14
T260Y	-0.385
E285I	-0.0117
S226F	-0.371
E45T	0.0748
S459F	-0.45
V414I	-0.137
L355Q	-0.061
D243G	-0.755
G429D	-0.382
T130F	-0.197
L40E	0.0138
T191N	-0.68
T191V	-0.236
P44T	0.166
L369K	-0.206
V62D	-0.0781
R467E	-0.144

Variant	8OG:A repair function score
R467D	-0.0155
L58F	0.00426
F466M	-0.0599
L396A	-0.329
T476A	-0.0442
C278S	-1.07
L215Y	-0.0538
M108V	-1.11
S507F	-0.0917
Q363R	0.0264
A67F	-0.0807
S292P	-0.0306
S292W	-0.0286
Q351R	0.0269
L257N	-1.21
A101V	-0.0177
V230P	-0.409
L423H	0.0797
T112S	-0.314
G123M	-0.101
Y152M	-0.3
L325I	-0.054
I421F	-0.142
G434V	-0.0502

Variant	8OG:A repair function score
G434L	-0.158
L432Q	-0.604
F504A	0.00928
P84F	-0.723
G201Q	0.039
G309H	0.0104
R81F	-1.5
F376E	-1.28
C262L	-1.26
S518I	-0.00126
R86N	-1.17
L234S	-0.827
R175F	-0.197
R409K	-0.145
Y76P	-1.8
A445S	-0.0458
Q233D	-0.318
Q233R	-0.19
Q233M	0.177
W235T	-0.416
E64W	-0.219
P442H	0.0816
S270C	-0.0715
S270G	-0.0285

Variant	8OG:A repair function score
R266F	-0.104
G161E	-0.898
G161T	-0.317
T263P	-0.461
T263F	-0.0981
T66I	-0.0285
V104M	-0.192
P331Q	-0.608
V438K	-0.0297
V438S	-0.176
G368L	-0.532
G368P	-0.423
L268R	0.00479
L392I	0.0377
C272T	-1.24
S510I	-0.0731
E275C	-0.0803
S490W	-0.0113
S490D	-0.0147
